# Experiment: soluble on expression in E. coli; label from the status in PepcDB or PDB records
row,Sequence,soluble on expression in E. coli
1,MPQFASKAEEKNYYERQASLAEFLTWYHQQELPEYEKPSLTVDMVLLCYNKEADQLKVLLIQRKGHPFRNSWALPGGFVNRNESTEDSVLRETKEETGVVISQENIEQLHSFSRPDRDPRGWVVTVSYLAFIGEEPLIAGDDAKEVHWFNLERHGQHITLSHEDVEITLDLKTAASLGKDTLAFDHSEIIIKAFNRVVDKMEHEPQVLQVLGKDFTITEARKVFAKFLGVDYRSIDHSNFKKAMTQYFEELGERPVGIGRPSKIYQLKTTTGF,soluble
2,MPQQTQTSAEKRCMVTKRIMLKLPDISAASLIPASIEASPAQVLGPASLAGIFPRGVRVYLTDTGAASQEKLVDAATHLRNLGYEPVPHLAARRIPSRVEFEEQVKRLAGEADVTDVLVVGGGVDRPAGPFASSMDMLSSGIFDRYGIKKIAIAGHPEGSPDFSEETAIAALRLKRDFGERSDAAMRIVTQFGFDPARFIAWAEGLAASGIDLPVHIGVSGPAKITTLLKYAALCGVGNSIAYLKKNALSLTTLARGHSPDSIVGPIERHWQANPQGPIRQIHVFPFGGLQNSADWLVSRGSWQTRDAGRPAPADSMAG,not soluble
3,MPQSESNIALLIDADNAPASKIEAIVSEIAKYGVANIRKAYGNWKSPNLKAWEECLHEYAIRPVQQFDYTKGKNATDAAMIIDAMDLLYTQRLDAFAIVSSDCDFTPLVMRILTNGLKVYGFGEKKTPLPFVYACSTFLYLESIDQIENSEGATQSSTSVKKTGKELKQDAKLISLLRSAISSTIDDDGWSSLAEIGGHIKNQASFDSRNYGYAKLSSLFEAIDLFEIERKNRAIYVRNRQKKSATSKSLEHHHHHH,soluble
4,MPQSYIVRTMRPADVEAVLRVQAAVYPASLLESAALFQNRIEIAPATCQVALDGQDLIGYLIAYPWDAGLPPALDRSLERLPGAADTWFVHDCAVLPAAQGGGVAAALLAGGRAQARRLGLRRASLVALAPAVGYWLRHGYQPLADSDALRAKLAGYGDGARYMVRADLAG,not soluble
5,MPRHRISGINWLAHYNELIRFWTRKTGSRGDVEDATHDVITKLLESNVSTISSPRSYLHSSIRNRLTDSYRQNKILDLVPIHDLPEDSHPLQPNDPVTHTCTMQLLTALKEALQELPLKCRQVFIWHRLEGYSQTEIAEKLDISVNMVEKYMIRATRHLRDRLQDHIPD,not soluble
6,MPRLENTIDIKVPVNIAYNQWTQFETFPNFMSSVLQVKQLDDSHVWWQVEIGGHAIEWETEIIEQVPDDHIAWRSVSGPRHLGLVSFKHVDIHATRVHVEIEYEADMKAEVSATMTGLLEQKISEALTCYRQLLESRKRPAGGWRGRIAVGTDNAVRHLEHHHHHH,soluble
7,MPRPGKDSYDEQKPPYSYIWLTYMAIQDSDDKMLPLTEIYKYIMDRFPFYRKNTQRWQNSLRHNLSFNDCFIKIPRRADRPGKGSYWAVHPNASGMFENGSCLRRRKRFRARGGQDDDDDDFHHPAPSKISRKNPLPLLPEPPITPPLLSSLFPNLPPSLPNFCLFPPGMDPTKSLLLNPLSLLLMPHFLKNSSNFESSTPHSETSEISGSGSSSSKTPTPEAGFNSSFSIESILSS,not soluble
8,MPRRAPAFPLSDIKAQMLFANNIKAQQASKRSFKEGAIETYEGLLSVDPRFLSFKNELSRYLTDHFPANVDEYGRVYGNGVRTNFFGMRHMNGFPMIPATWPLASNLKKRADADLADGPVSERDNLLFRAAVRLMFSDLEPVPLKIRKGSSTCIPYFSNDMGTKIEIAERALEKAEEAGNLMLQGKFDDAYQLHQMGGAYYVVYRAQSTDAITLDPKTGKFVSKDRMVADFEYAVTGGEQGSLFAASKDASRLKEQYGIDVPDGFFCERRRTAMGGPFALNAPIMAVAQPVRNKIYSKYAYTFHHTTRLNKEEKVKEWSLCVATDVSDHDTFWPGWLRDLICDELLNMGYAPWWVKLFETSLKLPVYVGAPAPEQGHTLLGDPSNPDLEVGLSSGQGATDLMGTLLMSITYLVMQLDHTAPHLNSRIKDMPSACRFLDSYWQGHEEIRQISKSDDAMLGWTKGRALVGGHRLFEMLKEGKVNPSPYMKISYQHGGAFLGDILLYDSRREPGSAIFVGNINSMLNNQFSPEYGVQSGVRDRSKRKRPFPGLAWASMKDTYGACPIYSDVLEAIERCWWNAFGESYRAYREDMLKRDTLELSRYVASMARQAGLAELTPIDLEVLADPNKLQYKWTEADVSANIHEVLMHGVSVEKTERFLRSVMPR,soluble
9,MPRRRGSSSSSSAAGGSGGGGGFGFSSLRRELHLHNFFRTSSPSASSTSRTPPAALPPRTSAVTIPGSNHKLTSSASSYHPPRELTVSTFSAGSATAADGLGGAHLTPSLSSSVHARRESFLYRASDDLREASSLRPVSRASSIASNEHGYVILYIFL,not soluble
10,MPRSSLRLLAKPLLESRRGFCTSSDKIVASVLFERLRVVIPKPDPAVYAFQEFKFNWQQQFRRRYPDEFLDIAKNRAKGEYQMDYVPAPRITEADKNNDRKSLYRALDKKLYLLIFGKPFGATSDKPVWHFPEKVYDSEPTLRKCAESALKSVVGDLTHTYFVGNAPMAHMAIQPTEEMPDLPSYKRFFFKCSVVAASKYDISNCEDFVWVTKDELLEFFPEQAEFFNKMIIS,soluble
11,MPRTHGYAPIGKRCHGKCNWHARGRINVIGALIGKCLLTVGLFKNNIDADTFLGWTIHDLLPKLPPASIVVMDNATFRKRQDIQNVITRGGHTLEYLPAYSPDLNPIEHKWAQTKAVRKQQNQTVEQLFKIESFYVT,not soluble
12,MPRWRSAVEGLMLNRVVEQLTAQLPARNLGWVFPDETTAALLLDGPDGQPLGNLVLGYRPPQPVLFLSRERLRGDPHNPFQRLLATRVRGELLKIEQFKLDRVVALHFGPAEGFIDQPPARLLFEVTGRNANLLVMEEGEGFAGRITLAAREITGSRNRFRTIRSGGPYTPPPPYDKFDPRTMTPADAQTLAGVPLSEWRGRVDGLGPMLSAELARRAEMRPSQAPGDDWERAYDALKSLVADPSVSEGTLSEGAREAARQEKAGALRKLLREPLEKRVTLLENQLGDVTRAEEGVEIAAQDRAEADLLMAYAQTVEPGAASALLPSFDGEGEVPVSLEPQLSAVQNAEKRYARARRRDEVYLRLAEREGSIRSELEAARERLHRLDHAELEQLEQLASDLEREKPERS,not soluble
13,MPSRKFADGEVVRGRWPGSSLYYEVEILSHDSTSQLYTVKYKDGTELELKENDIK,soluble
14,MPSSDPTQSSGFAGLRSTSWPVLGILSFGEELSGYDLKKWASYSVRFFYWSPSFSQVYSELKKLEDLGYVTSRTVVDDEARVKPKRLYKITDAGMAVMRSWAREAPIDPPVLKHGVMLRMWLGHLTEPEQLKDALKEHISYVEGMSRQAALDARDSDVEPTWAFAHMVNKWSERYYAAESELAKQMLADIDEAVERMHGEGTPEHPGVPKPTASHSIRRSREAQKEYQAAMKAAQDADDEAERED,not soluble
15,MPSSNSVVPPFDARNLEIKTKSIEQTLIPLVTQITTLVNYKESYMASGKPKSERAMRAALKIGSAVEAAIERFVCVGETIADENADIQPEMYDACTEARLAGASMANLSCACNDDPNSVVDKAVLVRASRQLLSSVTRVLLLADRVLVKQVLRAEDKIAFSLSRLESTRSFNDFVKVFAVFGGEMVELAHRSGDRQHDLKSEKRKAQMSIARTSLERLTMLLLTASKTYLRHPDCDSALQCRDGVFYQMKLSLELIAICVCDGILTTEKSRYIQDEPDMPIDIALQLTANAAIKQLTEMLEMIRMTVRVGAGVRERIVSALDALCQLTQDFTDSAYTPHHQREQILDFLEECRFEMTNLIQPDENEQLAASGLEVTVERLNRRLKDLSKQLQIVAMEQISEVLRANEDQVLLSSMKACAVSGDIDGVEKYMHKFREHADHMQEVCRLLHHISITDALHVHTGHVERNMRALAPLTILAGRTLCVHPSSRIARENLEVFCDTWGQAVNDLSRVAKESDVAANGRVAAEKQAYMSLPRPGVSKSSCRRSVPKHDAASSSSSNELLPNGGRHPKQVGIAPTRVVSQTGDEASSDEEQVDKQEIEAFQYRISLIIDDLQSDVEGGTHGR,not soluble
16,MPSSVELSVQAGLEHFDAAQWDALAGPQPFVRHAFLRALHDTGCASPGTGWTPCFLALRRAGLLAGAVPLYAKSHSRGEYVFDYAWADAYARNGLPYYPKLLSAVPFTPVGGARLLAHTHADRLLLARGLIQLARQFEVSSLHVLFPSDDDLLALREAGYLIRAGVQFHWRNAGYAGFDDFLAAFSHDKRKKIRQDRKKVAAERVSFRWLRGADIDAAALDFFYQCYRHTYLAHGNPPYLNLEFFRQLHAEMPDALVLILAEQDGQPVAAALNLQADGVLYGRYWGARRYIPGLHFETCYLQSIEYCIAHGQASFEGGAQGEHKMARGLLPTPTWSAHWIADTRFAAAIDDFLGHETHAIDEYRDELATHSPFRKT,not soluble
17,MPSTADTVEVDFITPRHLAGGGDPAWITVPLHRACGWSHGHDPLMPRALLSSPDQKALLRLEPDPDGQWWTLNHTAESGRPAWYASFGARTPVELIAAFTDALTAPAPPTDAPCDPFEPLRQIAWSAPAVGADGLVSPDGTAYVQRQGSADGPGAWFVTVTLGPRPVWQARFDAHTPEHLVAAFTTALADPKPALRTDSGRSLPTRNPNVVTRKTTDVLAVDIAGALEERVQTLTTRHPLPPANPMPPTPPPTRHGRSRLEHHHHHH,soluble
18,MPSYKLTYFNARGYGEAARILFHLADVPFEDFRMTHGDGTWEKLKEKTPLGQVPVLSVDGFEIPQSAAIIRYLANKFGYAGKTPEEQAWADAIVDQFKDFMGSFREVGKAHAAGKPAEEIAKIMQSDVVPARDAFFVIINGILEKSKSGFLVGDGLTFADIVVVECITTLDKNQLFTPAGEPKLVALREKVYAIPAIKKWVEIRPDTQY,not soluble
19,MPTENELKIYLKRWDKKYGLTYKVLDILQTVFYRSDATREAFVEMCGDLDVQKLTFDSYLYKTVVPANPITQLKITAKTIGSLIRGNALAPLEHHHHHH,not soluble
20,MPTERPTTTAPVSLRERRRTAAAREILDAAEQHIGEHGPAALSLRAVARGLGMTVQALYHYFPNRDALVTALITKAYGELSDVLQAAADSVRADPATPRPVAVAEAYRGWGVARPEHFQLLYGTPLRYYAAPAEGPTTQAVRRMGAIFQRELFAGFTPAQLAAAEVPALSPSYREHLEQLPMHAQGDLPPAAASLFLSAWGHVHGLVVLEVFGHTAFLGDHQAEVFRTSVRMMLEDIHRRIPAA,not soluble
21,MPTFTLRPYTEADEDPAIALWLRTWQLAYPAIDFTKRVDWWRERWRTELVPQAAIIVAEQDSALIGFVTIDAVGYLDQLVVEPEHWGWGVAEALVDEAKQRSPTEVTLKVNADNYRAIKFYRRNGFAVTSEELNSSGRPVLNMLWRPA,not soluble
22,MPTITTKTPVKGLIFNIQKFSINDGPGIRTVVFFKGCPLRCKWCSNPESQSGEQESMYDEQTAKQTIVGDYMTVDDIMKVILQDKDFYEESGGGVTFSGGEVLFQASFAIELAKAVKAAGINLACETTGYARPKVFNEFMSYMDFMYYDCKQWDPAQHRIGTGADNGVILRNLATAVQAHQKMMVRIPVIPGFNYTLNDADHFGQLFNQIGVTEVELLPFHQFGLKKYQDLGRKYALVNVKQLQADDLIDYAEHIRAHGVKVRVNGW,not soluble
23,MPTPCYISITGQTQGNITAGAFTADSVGNIYVQGHEDEMLVQEFLHNVTVPTDPQSGQPAGQRAHKPFIFTVALNKAVPLMYNALASGEMLPTTELHWWRTSVEGKQEHYFTTRLTDSTIVDMKLHMPHCQDPAKREFTQLLEVSLAYRKIEWEHVKSGTSGADDWRAPLEA,soluble

# — the DeepSol protein solubility set
